Here are results for three molecules from patent US20260242449A1 (INTERNATIONAL AIDS VACCINE INITIATIVE, published 2026).

Holding throughout (test): cell-based or functional assay
Assay [1] deals with HIV-1 Env of pseudovirus 6545.V4.C1 (clade AC) (HIV-1).
The target of assay [2] is HIV-1 Env of pseudovirus BJOX009000.02.4 (clade AE) (HIV-1).
Assay [3] addresses HIV-1 Env of pseudovirus CNE8 (clade AE) (HIV-1).
The target of assay [4] is HIV-1 Env of pseudovirus BJOX010000.06.2 (clade AE (T/F)) (HIV-1).
The target of assay [5] is HIV-1 Env of pseudovirus QH0692.42-N332A (clade B) (HIV-1).
The target of assay [6] is HIV-1 Env of pseudovirus TRO.11-N332A (clade B) (HIV-1).
The target of assay [7] is HIV-1 Env of pseudovirus CAP45.G3 (clade C) (HIV-1).
Assay [8] concerns the target HIV-1 Env of pseudovirus 3016.v5.c45 (clade D) (HIV-1).
Assay [9] concerns the target HIV-1 Env of pseudovirus 231965.c01 (clade D) (HIV-1).
For assay [10], the target named is HIV-1 Env of pseudovirus X1632.S2.B10 (clade G) (HIV-1).
Assay [11] concerns the target HIV-1 Env of pseudovirus Q259.17 (clade A) (HIV-1).
Assay [12] deals with HIV-1 Env of pseudovirus MS208.A1 (clade A) (HIV-1).
Assay [13] concerns the target HIV-1 Env of pseudovirus T257-31 (clade AG) (HIV-1).

B1: BiS13 (bispecific antibody)
heavy: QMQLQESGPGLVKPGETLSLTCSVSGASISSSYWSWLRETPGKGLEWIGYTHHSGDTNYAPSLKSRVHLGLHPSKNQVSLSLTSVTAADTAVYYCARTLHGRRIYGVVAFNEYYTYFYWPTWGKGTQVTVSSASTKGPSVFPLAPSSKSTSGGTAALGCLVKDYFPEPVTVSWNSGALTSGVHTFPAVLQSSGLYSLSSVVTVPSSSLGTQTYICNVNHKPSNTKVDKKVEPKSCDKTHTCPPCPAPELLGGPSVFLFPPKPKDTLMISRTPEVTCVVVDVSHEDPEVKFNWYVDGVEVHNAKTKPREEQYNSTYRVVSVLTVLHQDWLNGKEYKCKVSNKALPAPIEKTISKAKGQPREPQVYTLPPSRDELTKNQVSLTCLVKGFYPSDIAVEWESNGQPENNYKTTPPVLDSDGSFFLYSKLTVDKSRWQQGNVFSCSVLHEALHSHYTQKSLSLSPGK
light: ALTQPRSVSASPGQSVTISCTGTHNLVSWCQHQPGRAPKLLIYDFNKRPSGVPDRFSGSGSGGTASLTITGLQDDDDAEYFCWAYEAFGGGTKLTVLGQGGGGSGGGGSGGGGSADLVQSGAVVKKPGDSVRISCEAQGYRFPDYIIHWIRRAPGQGPEWMGWMNPMGGQVNIPWKFQGRVSMTRDTSIETAFLDLRGLKSDDTAVYYCVRDRSNGSGKRFESSNWFLDLWGRGTAVTIQSGGGGSGGGGSGGGGSGGGGSGGGGSDISVAPGETVRITCGGESIGSRAVQWYQHRPGQAPRLIIYNNQDRPPGIPERFSGSPDIDFGTTATLTISNVEAGDEATYYCHIWDSRRPTNWELGPGTTLTVLGQPKAAPSVTLFPPSSEELQANKATLVCLISDFYPGAVTVAWKADSSPVKAGVETTTPSKQSNNKYAASSYLSLTPEQWKSHKSYSCQVTHEGSTVEKTVAPTECS
For the molecule B1, the “Pseudovirus neutralization IC80 (TZM-bl luciferase)” value (“Pseudovirus neutralization IC80” below) in assay [1] was less than 0.0001 µg/mL; in [2], 0.0096 µg/mL; in assay [3] it was 0.137 µg/mL; in assay [4], 0.172 µg/mL; in assay [5] it was 0.0311 µg/mL; in [6] it was 0.0054 µg/mL. Further, the “Pseudovirus neutralization IC80” value is 0.0021 µg/mL in assay [7]; 0.0156 µg/mL in assay [8]; 0.0157 µg/mL in assay [9]; 0.06 µg/mL in [10]; 0.0114 µg/mL in assay [11]; 0.0998 µg/mL in assay [12].

B2: N49P7 (antibody, V domains shown)
VH: ADLVQSGAVVKKPGDSVRISCEAQGYRFPDYIIHWIRRAPGQGPEWMGWMNPMGGQVNIPWKFQGRVSMTRDTSIETAFLDLRGLKSDDTAVYYCVRDRSNGSGKRFESSNWFLDLWGRGTAVTIQS
VL: ALTQPRSVSASPGQSVTISCTGTHNLVSWCQHQPGRAPKLLIYDFNKRPSGVPDRFSGSGSGGTASLTITGLQDDDDAEYFCWAYEAFGGGTKLTVL
Consider B2, for which the “Pseudovirus neutralization IC80” value was 1.76 µg/mL in assay [1]; 0.0999 µg/mL in assay [2]; 0.175 µg/mL in assay [3]; 0.453 µg/mL in assay [4]; 0.577 µg/mL in assay [13]; 0.35 µg/mL in assay [5]. The “Pseudovirus neutralization IC80” value in assay [6] was 0.0622 µg/mL; in [7], 0.112 µg/mL; in [8], 0.516 µg/mL; in [9] it was 0.196 µg/mL; in [10], 0.27 µg/mL; in assay [11] it was 0.163 µg/mL. In addition, the “Pseudovirus neutralization IC80” value in [12] is 0.194 µg/mL.

B3: ePGT121 (antibody, V domains shown)
VH: QMQLQESGPGLVKPGETLSLTCSVSGASISSSYWSWLRETPGKGLEWIGYTHHSGDTNYAPSLKSRVHLGLHPSKNQVSLSLTSVTAADTAVYYCARTLHGRRIYGVVAFNEYYTYFYWPTWGKGTQVTVSS
VL: SDISVAPGETVRITCGGESIGSRAVQWYQHRPGQAPRLIIYNNQDRPPGIPERFSGSPDIDFGTTATLTISNVEAGDEATYYCHIWDSRRPTNWELGPGTTLTVLG
Take B3: the “Pseudovirus neutralization IC80” value in [1] was more than 50 µg/mL; in [2] it was 0.0428 µg/mL; in assay [3], more than 50 µg/mL; in assay [4], more than 50 µg/mL; in assay [13], more than 50 µg/mL; in [5], more than 50 µg/mL. In addition, the “Pseudovirus neutralization IC80” value in [6] is 1.35 µg/mL; in assay [7] it was 5.78 µg/mL; in assay [8], more than 50 µg/mL; in assay [9], more than 50 µg/mL; in assay [10], more than 50 µg/mL; in assay [11], more than 50 µg/mL. Besides, the “Pseudovirus neutralization IC80” value in assay [12] was more than 50 µg/mL.
